Where a chain is given by its changes, count along the chain named. Names and notes keep the numbering of the source. Blank lines part the entries; values can stand above or below the binder they belong to.
Legend:
human IL-12 [1] = molecular target: T1, human IL-12 (human, UniProt P29459 23-219; P29460 23-328); test: SPR (BIAcore), IL-12 chip
T1 construct: recombinant human IL-12 heterodimer (p35/p40, disulfide-linked); also called hIL-12; rhIL-12
T1 sequence (looked up) 1: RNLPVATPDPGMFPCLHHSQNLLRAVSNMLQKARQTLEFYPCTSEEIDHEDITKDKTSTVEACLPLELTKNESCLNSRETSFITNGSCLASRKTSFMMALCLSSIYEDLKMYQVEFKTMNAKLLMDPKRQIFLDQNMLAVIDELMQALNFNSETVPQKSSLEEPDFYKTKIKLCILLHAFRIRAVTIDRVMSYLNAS
T1 sequence (looked up) 2: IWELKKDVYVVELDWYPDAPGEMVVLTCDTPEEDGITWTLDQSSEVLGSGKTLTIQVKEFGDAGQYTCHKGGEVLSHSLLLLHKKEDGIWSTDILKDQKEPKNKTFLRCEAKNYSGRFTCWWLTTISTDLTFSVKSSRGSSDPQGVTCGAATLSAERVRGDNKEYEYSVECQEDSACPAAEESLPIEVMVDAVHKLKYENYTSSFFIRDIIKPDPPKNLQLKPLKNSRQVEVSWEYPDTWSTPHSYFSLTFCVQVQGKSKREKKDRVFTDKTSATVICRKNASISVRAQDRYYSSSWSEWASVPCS
Source text: The system utilizes the optical properties of SPR to detect alterations in protein concentrations within a dextran biosensor matrix. Proteins are covalently bound to the dextran matrix at known concentrations. […] To determine the off rate (koff), on rate (kₒₙ), association rate (Ka) and dissociation rate (Kd) constants, BIAcore kinetic evaluation software (version 2.1) was used.

human IL-12 [2] = molecular target: T1, human IL-12; test: RB assay: 125I-hIL-12 binding to PHA blasts
Method: (§1) PHA blast cells isolated as described above, were washed once and resuspended in binding buffer to a cell density of 2×10⁷ cells/ml. […] The cell pellet was examined for cell bound radioactivity using a gamma counter. […] Incubations were carried out in duplicate.

[3] = molecular target: T2, recombinant human IL-12 (rhIL-12) (human, UniProt P29459 23-219; P29460 23-328); test: cell-based or functional assay
T2 sequence (looked up) 1: T1 sequence (looked up) 1
T2 sequence (looked up) 2: T1 sequence (looked up) 2

[4] = molecular target: T2, recombinant human IL-12 (rhIL-12); test: BIAcore SPR, IL-12 on chip
[5] = molecular target: T2, recombinant human IL-12 (rhIL-12); test: receptor binding assay, 125I-hIL-12 on PHA blasts
Method: as §1

koff (human IL-12 [1]): 0.0499 s⁻¹
IC50 (human IL-12 [2]): 400 nM
B1: 78-35 (scFv, V domains shown)
VH: QVQLVQSGGGVVQPGRSLRLSCAASGFTFSSYGMHWVRQAPGKGLEWVAFIRYDGSNKYYADSVKGRFTISRDNSKNTLYLQMKSLRAEDTAVYYCTTSGSYDYWGQGTMVTVSS
VL: SYVLTQPPSVSGTPGQRVTISCSGGRSNIGSNTVKWYQQLPGTAPKLLIYGNDQRPSGVPDRFSGSKSGTSASLAITGVQAEDEADYYCQSYDSSLTGSRVFGTGTKVTVL
notes: scFv

PHA assay IC50 [3]: 0.14 nM
koff [4]: 0.000275 s⁻¹
IC50 [5]: 0.04 nM
B2: Y61 (scFv, V domains shown)
VH: B1 VH with T97K, S99H, Y102H, Y104N
VL: B1 VL with S94R, S95G, L96T, T97H, G98P, S99A, R100L, V101L
notes: also called Y61 scFv; clone Y61; not shown: scFv linker and any tags

koff (human IL-12 [1]): 0.0025 s⁻¹
IC50 (human IL-12 [2]): 7 nM
B3: 73-B7 (scFv, V domains shown)
VH: B1 VH with S99H, Y102Q, Y104N
VL: SYVLTQPPSVSGTPGQRVTISCSGGRSNIGSNTVKWYQQLPGTAPKLLIYGNDQRPSGVPDRFSGSKSGTSASLAITGVQAEDEADYYCQSYDSSLRGSRVFGTGTKVTVLG

koff (human IL-12 [1]): 0.00242 s⁻¹
B4: C6 (scFv, V domains shown)
VH: B1 VH with T97K, S99H, Y102H, Y104N
VL: B1 VL with S94R, S95G, L96Q, G98P, R100I, V101T
notes: scFv

koff (human IL-12 [1]): 0.00536 s⁻¹
B5: C8 (scFv, V domains shown)
VH: B1 VH with T97K, S99H, Y102H, Y104N
VL: B1 VL with S95G, L96T, T97S, G98N, S99L, R100L, V101P
notes: scFv

koff [4]: 0.0054 s⁻¹
B6: 99-B11 (scFv, V domains shown)
VH: B1 VH with T97K, S99H, Y102H, Y104N
VL: B1 VL with S95G, L96Y
notes: scFv clone

koff [4]: 0.00063 s⁻¹
IC50 [5]: 0.25 nM
B7: A4 (scFv, V domains shown)
VH: B1 VH with T97K, S99H, Y102H, Y104N
VL: B1 VL with S94R, S95G, L96R, T97N, G98P, S99A, R100L, V101T
notes: scFv clone

koff (human IL-12 [1]): 0.00604 s⁻¹
B8: B10 (scFv, V domains shown)
VH: B1 VH with T97K, S99H, Y102H, Y104N
VL: B1 VL with S94R, S95G, T97S, G98D, R100P, V101L
notes: scFv

koff (human IL-12 [1]): 0.00295 s⁻¹
B9: B11 (scFv, V domains shown)
VH: B1 VH with T97K, S99H, Y102H, Y104N
VL: B1 VL with S94R, S95G, L96I, G98P, S99G, R100L, V101A
notes: scFv

koff [4]: 0.0057 s⁻¹
B10: 99-C11 (scFv, V domains shown)
VH: B1 VH with T97K, S99H, Y102H, Y104N
VL: B1 VL with S95G, L96F
notes: scFv clone

koff [4]: 0.0054 s⁻¹
B11: 99-F11 (scFv, V domains shown)
VH: B1 VH with T97K, S99H, Y102H, Y104N
VL: B1 VL with S95G, L96F
notes: scFv clone

koff (human IL-12 [1]): 0.00849 s⁻¹
B12: M2 A4 (scFv, V domains shown)
VH: B1 VH with T97K, S99H, Y102H, Y104N
VL: B1 VL with S95G, L96F, T97P
notes: scFv

koff [4]: 0.00045 s⁻¹
IC50 [5]: 0.066 nM
B13: A5 (scFv, V domains shown)
VH: B1 VH with T97K, S99H, Y102H, Y104N
VL: B1 VL with S94R, S95G, L96T, T97H, G98P, R100M, V101L
notes: scFv clone

koff [4]: 0.0054 s⁻¹
B14: 99-E9 (scFv, V domains shown)
VH: B1 VH with T97K, S99H, Y102H, Y104N
VL: B1 VL with S95G, L96F
notes: scFv clone

koff [4]: 0.0043 s⁻¹
B15: 99-G11 (scFv, V domains shown)
VH: B1 VH with T97K, S99H, Y102H, Y104N
VL: B1 VL with S95R, L96F
notes: scFv clone

koff [4]: 3.95 s⁻¹
B16: L3.3R3M-H11 (scFv, V domains shown)
VH: B1 VH with T97K, S99H, Y102H, Y104N
VL: B1 VL with S94R, S95G, L96M, T97I, G98P, S99A, R100L, V101T
notes: scFv clone

koff (human IL-12 [1]): 0.00391 s⁻¹
B17: C5 (scFv, V domains shown)
VH: B1 VH with T97K, S99H, Y102H, Y104N
VL: B1 VL with S94R, S95G, L96P, T97H, G98T, S99Q, R100P, V101T
notes: scFv

koff [4]: 5.37 s⁻¹
B18: L3.3R3M-A3 (scFv, V domains shown)
VH: B1 VH with T97K, S99H, Y102H, Y104N
VL: B1 VL with S94R, S95G, L96F, R100M
notes: scFv clone

koff (human IL-12 [1]): 0.00089 s⁻¹
IC50 (human IL-12 [2]): 1 nM
B19: 136-24 (scFv, V domains shown)
VH: B1 VH with S99H, Y102H, Y104N
VL: B1 VL with S94N, S95A, L96V, G98A, R100K
notes: scFv

koff (human IL-12 [1]): 0.00334 s⁻¹
B20: C3 (scFv, V domains shown)
VH: B1 VH with T97K, S99H, Y102H, Y104N
VL: B1 VL with S95G, L96V, T97D, G98P, S99G, R100P, V101Y
notes: scFv

koff (human IL-12 [1]): 0.0005 s⁻¹
IC50 (human IL-12 [2]): 0.05 nM
B21: 170-25 (scFv, V domains shown)
VH: B1 VH with S99H, Y102Q, Y104T
VL: B1 VL with T97R
notes: scFv

koff (human IL-12 [1]): 0.00583 s⁻¹
B22: C7 (scFv, V domains shown)
VH: B1 VH with T97K, S99H, Y102H, Y104N
VL: B1 VL with S94R, S95G, L96I, T97P, G98T, R100Y, V101L
notes: scFv

koff (human IL-12 [1]): 0.00585 s⁻¹
B23: C12 (scFv, V domains shown)
VH: B1 VH with T97K, S99H, Y102H, Y104N
VL: B1 VL with S94R, S95G, T97R, G98V, S99Q, R100A, V101P
notes: scFv

koff (human IL-12 [1]): 0.001 s⁻¹
IC50 (human IL-12 [2]): 0.2 nM
B24: 170-23 (scFv, V domains shown)
V domain 1: B1 VH with S99H, Y102H, Y104N
V domain 2: B1 VL with S94R, S95G, L96F, S99A, F102W
notes: scFv

koff (human IL-12 [1]): 0.0442 s⁻¹
B25: M2 B4 (scFv, V domains shown)
VH: B1 VH with T97K, S99H, Y102H, Y104N
VL: B1 VL with S94I, S95G
notes: scFv

IC50 (human IL-12 [2]): 1.6 nM
B26: 101-11 IgG1 (antibody, V domains shown)
VH: B1 VH with S99H, Y102H, Y104N
VL: B1 VL with S94R, S95G, L96F
notes: IgG1

koff [4]: 4.24 s⁻¹
B27: L3.3R3M-G7 (scFv, V domains shown)
VH: B1 VH with T97K, S99H, Y102H, Y104N
VL: B1 VL with S94R, S95G, L96F, R100M
notes: scFv clone

IFN gamma IC50 [3]: 0.02 nM
IC50 [5]: 0.02 nM
B28: Y61-L50Y (scFv, V domains shown)
VH: B1 VH with T97K, S99H, Y102H, Y104N
VL: QSVLTQPPSVSGAPGQRVTISCSGSRSNIGSNTVKWYQQLPGTAPKLLIYYNDQRPSGVPDRFSGSKSGTSASLAITGLQAEDEADYYCQSYDRGTHPALLFGTGTKVTVL

koff (human IL-12 [1]): 0.00354 s⁻¹
IC50 (human IL-12 [2]): 0.18 nM
B29: 149-9 (scFv, V domains shown)
VH: B1 VH with T97K, S99H, Y102H, Y104N, Q107H
VL: B1 VL with D93E, S94R, S95G, L96F, R100M
notes: scFv

koff (human IL-12 [1]): 0.0462 s⁻¹
B30: M2 C3 (scFv, V domains shown)
VH: B1 VH with T97K, S99H, Y102H, Y104N
VL: B1 VL with S94T, S95G
notes: scFv

koff [4]: 0.0048 s⁻¹
B31: 99-G7 (scFv, V domains shown)
VH: B1 VH with T97K, S99H, Y102H, Y104N
VL: B1 VL with D93L, S94K, L96R, T97A, G98F
notes: scFv clone

koff (human IL-12 [1]): 0.00397 s⁻¹
B32: C9 (scFv, V domains shown)
VH: B1 VH with T97K, S99H, Y102H, Y104N
VL: B1 VL with S94R, S95G, L96P, G98H, S99L, R100P, V101H
notes: scFv

koff [4]: 0.000557 s⁻¹
IC50 [5]: 0.25 nM
B33: A12 (scFv, V domains shown)
VH: B1 VH with T97K, S99H, Y102H, Y104N
VL: B1 VL with S94R, S95G, L96T, G98P, S99R, R100P, V101M
notes: scFv clone

koff [4]: 5.51 s⁻¹
B34: L3.3R3M-B3 (scFv, V domains shown)
VH: B1 VH with T97K, S99H, Y102H, Y104N
VL: B1 VL with S94R, S95G, L96F, R100M
notes: scFv clone

koff [4]: 5.69 s⁻¹
B35: L3.3R3M-H6 (scFv, V domains shown)
VH: B1 VH with T97K, S99H, Y102H, Y104N
VL: B1 VL with S94R, S95G, L96N, T97W, G98P, S99N, R100S, V101N
notes: scFv clone

koff [4]: 5.55 s⁻¹
B36: L3.3R3M-G8 (scFv, V domains shown)
VH: B1 VH with T97K, S99H, Y102H, Y104N
VL: B1 VL with S94R, S95G, L96S, T97Y, G98P, S99A, R100L, V101R
notes: scFv clone

Reference: patent US20150037348A1 (AbbVie / Abbott, published 2015)
